# Data as given in US9096835B2, “DNA polymerase” (Medical Research Council, priority 2003, dated 2015).
# B1: Tth: Thermus thermophilus (Tth) wild-type polymerase (protein, UniProt P52028 1-834, looked up)
# DNA polymerase I, thermostable: MEAMLPLFEPKGRVLLVDGHHLAYRTFFALKGLTTSRGEPVQAVYGFAKSLLKALKEDGYKAVFVVFDAKAPSFRHEAYEAYKAGRAPTPEDFPRQLALIKELVDLLGFTRLEVPGYEADDVLATLAKKAEKEGYEVRILTADRDLYQLVSDRVAVLHPEGHLITPEWLWEKYGLRPEQWVDFRALVGDPSDNLPGVKGIGEKTALKLLKEWGSLENLLKNLDRVKPENVREKIKAHLEDLRLSLELSRVRTDLPLEVDLAQGREPDREGLRAFLERLEFGSLLHEFGLLEAPAPLEEAPWPPPEGAFVGFVLSRPEPMWAELKALAACRDGRVHRAADPLAGLKDLKEVRGLLAKDLAVLASREGLDLVPGDDPMLLAYLLDPSNTTPEGVARRYGGEWTEDAAHRALLSERLHRNLLKRLEGEEKLLWLYHEVEKPLSRVLAHMEATGVRLDVAYLQALSLELAEEIRRLEEEVFRLAGHPFNLNSRDQLERVLFDELRLPALGKTQKTGKRSTSAAVLEALREAHPIVEKILQHRELTKLKNTYVDPLPSLVHPRTGRLHTRFNQTATATGRLSSSDPNLQNIPVRTPLGQRIRRAFVAEAGWALVALDYSQIELRVLAHLSGDENLIRVFQEGKDIHTQTASWMFGVPPEAVDPLMRRAAKTVNFGVLYGMSAHRLSQELAIPYEEAVAFIERYFQSFPKVRAWIEKTLEEGRKRGYVETLFGRRRYVPDLNARVKSVREAAERMAFNMPVQGTAADLMKLAMVKLFPRLREMGARMLLQVHDELLLEAPQARAEEVAALAKEAMEKAYPLAVPLEVEVGMGEDWLSAKG
# B2: 5D4: round 5 clone selected for replication of 5NI; SEQ ID NO: 109 (protein)
# chain: MAMLPLFEPKGRVLLVDGHHLAYRTFFALKGLTTSRGEPVQAVYGFAKSLLKALKEDGYKAIFVVFDAKAPSFRHEAHEAYKAGRAPSPEDFPRQLALIKELVDLLGFTRLEVQGYEADDVLATLAKKAEKEGYEVRILTADRDLYQLVSDRVAVLHPEGHLITPEWLWEKYGLRPEQWVDFRALVGDPSDNLPGVKGIGEKTALKLLKEWGSLENLLKNLDRLKPAIREKILAHMDDLKLSWDLAKVRTDLPLEVDFAKRRESDRERLRAFLERLEFGSLLHEFGLLESPKALEEAPWPPPVGAFVGFVLSRKEPMWADLLALAAARGGRVHRAPEPYKALRDLKEARGLLAKDLSVLALREGLGLPPGDDPMLLAYLLDPSNTTPEVVARRYGGEWTEEAGERAALSERLFANLWGRLEGEGRLLWLYRGVERPLSAVLAHMEATGVRLDVAYLRALSLEVAEEIARLEAEVFRLAGHPFNLNSRDQLERVLFDELGLPAIGKTEKTGKRSTSAAVLEALREAHPIVEKILQYRELTKLKSTYIDPLPDLIHPRTGRLHTRFNQTATATGRLSSSDPNLQNIPVRTPLGQRIRRAFIAEGGWLLVVLDYSQMELRVLAHLSGDENLIRVFQEGRDIHTETASWMFGVPREAVDPLMRRAAKTINFGVLYGMSAHRLSQELAIPYEEAQAFIERYFQSFPKVRAWIEKTLEEGRKRGYVETLFGRRRYVPDLNARVKSVREAAERMAFNMPVQGTAADLTKLAMVKLFPRLEETGARMLLQVHDELVLEAPKERAEAVARLAKEVMEGVYPLAVPLEVEVGIGEDWLSAKG
# modifications: Mutant Taq polymerase
# B3: 4D11: round 4 clone selected for replication of 5NI; SEQ ID NO: 107 (protein)
# chain: MAMLPLFEPKGRVLLVDGHHLAYRTFFALKGLTTSRGEPVQAVYGFAKSLLKALKEDGYKAVFVVFDAKAPSFRHEAYEAYKAGRAPTPEDFPRQLALIKELVDLLGFTRLEVQGYEADDVLATLAKKAEKEGYEVRILTADRDLYQLVSDRVAVLHPEGHLITPEWLWEKYGLRPEQWVDFRALVGDPSDNLPGIKGIGEKTALKLLKEWGSLENLLKNLDRVKPENVREKIKAHLEDLRLSLELSRVRTDLPLEVDFAKRREPDRERLRAFLERLEFGSLLHEFGLLESPKALEEAPWPPPEGAFVGFVLSRKEPMWADLLALAAAKGGRVHRAPEPYKALRDLKEARGLLAKDLSVLALREGLGLPPGDDPMLLAYLLDPSNTTPEGVARRYGGEWTEEAGERAALSERLFANLWGRLEGEERLLWLYREVERPLSAVLAHMEATGVRLDVAYLRALSLEVAEEIARLEAEVFRLAGHPFNLNSRDQLERVLFDELGLPAIGKTEKTGKRSTSAAVLEALREAHPIVEKILQYRELTKLKSTYIDPLPDLIHPRTGRLHTRFNQTATATGRLSSSDPNLQNIPVRTPLGQRIRRAFIAEGGWLLVVLDYSQMELRVLAHLSGDENLIRVFQEGRDIHTETASWMFGVPREAVDPLMRRAAKTINFGVLYGMSAHRLSQELAIPYEEAQAFIERYFQSFPKVRAWIEKTLEEGRRRGYVETLFGRRRYVPDLEARVKSVREAAERMAFNMPVQGTAADLMKLAMVKLFPRLEETGARMLLQVHDELVLEAPKERAEAVARLAKEVMEGVYPLAVPLEVEVGIGEDWLSAKE
# modifications: Mutant Taq polymerase
# Tests used:
# [1] = tested on: 215 bp fragment from the cytochrome B gene in the mitochondrial genome; experiment: Ancient DNA PCR, cave hyena samples; assay type: biochemical, cave hyena (Crocuta spelaea); conditions: on two separate occasions
# Description: FIG. 12. Several samples of cave hyena (Crocuta spelaea) were extracted and analysed. The seven samples were from Teufelslucke cave (Austria, 40 000 years old), Aufhausener Höhle (Germany, no date determined (2 samples)); Irpfelhöhle (Germany, no date determined); Kiskevelyi ([…] 48 500 years old); Miskolc III (Hungary, 44 000 years old); Mala ladnica (Slovakia, no date determined). The target was a 215 bp fragment from the cytochrome B gene in the mitochondrial genome. The amplification was only successful in the presence of sspDNA.
# Several samples of cave hyena (Crocuta spelaea) were extracted and analysed. […] These samples were chosen to test the efficacy of the expanded substrate spectrum polymerases.
# Therefore, M1 was blended with a commercial preparation of Taq (SuperTaq (HT biotechnology Ltd)) in a ratio of 1 unit to 10 and compared to Taq in the absence of M1. It was hoped that if M1 could bypass the blocking lesions, then the wild type Taq would amplify the resulting translesion synthesis product.
# [2] = tested on: template containing 5-Nitroindole; experiment: Primer extension opposite 5-nitroindole; assay type: biochemical; conditions: for ability to replicate 5NI: clones from five rounds of selection
# Protocol: 50 pmol of ^32P-labelled primer and 100 pmol of template in a volume of 44 μl were annealed in 1× Taq buffer. 4D11 or 5D4 polymerase as cell lysate (6 μl) was added and reactions were incubated at 50° C. for 15 minutes followed by addition of one dNTP (1 μl in total volume of 50 μl, final dNTP concentration 40 μM). 8 μl samples were taken at various time points and added to 8 μl stop solution (7M urea, 100 mM EDTA containing xylene cyanol F). At the end of the time course the remaining 3 dNTPs were added (final concentration each dNTP 40 μM) and reactions incubated at 50° C. for a further 30 minutes. Reaction samples were electrophoretically separated using 20% polyacrylamide gels at 25 W for 4 hours. The resultant gels were dried and scanned using a phosphorimager (Molecular Dynamics). Data was processed using the program ImageQuant (Molecular Dynamics).
# [3] = Incorporation and extension of 5-nitroindole-5′-triphosphate; assay type: biochemical; conditions: 50° C., identical conditions as 4D11 and 5D4; data not shown
# Protocol: 50 pmol of ^32P-labelled primer and 100 pmol of template in a volume of 44 μl were annealed in 1× Taq buffer. 4D11 or 5D4 polymerase as cell lysate (6 μl) was added and reactions were incubated at 50° C. for 15 minutes followed by addition of d5NITP (1 μl in total volume of 50 µL final dNTP concentration 40 μM). 8 μl samples were taken at various time points and added to 8 μl stop solution (7M urea, 100 mM EDTA containing xylene cyanol F). At the end of the time course the 4 native dNTPs were added (final concentration each dNTP 40 μM) and reactions incubated at 50° C. for a further 30 minutes.
molecule,measurement,setting,value
SuperTaq: commercial preparation of Taq (HT biotechnology Ltd),amplification of previously un-amplifiable cave hyena DNA,[1],did not
B1,extension opposite 5-nitroindole,"[2]; 50° C., cell lysate, identical conditions as 4D11 and 5D4, data not shown",almost undetectable extension reactions
same,incorporation and extension of d5NITP,[3],almost undetectable extension reactions
B2,ability to replicate 5NI,[2],greatly increased ability to replicate 5NI
B3,ability to replicate 5NI,[2],greatly increased ability to replicate 5NI
